Results published in paper doi:10.1101/2021.09.16.460643 (bioRxiv, 2021).

T1: ETR1 fragment comprising both HK and RD domain (ETR1HK-RD) (Arabidopsis thaliana, UniProt P49333 324-738)
T1 sequence (looked up): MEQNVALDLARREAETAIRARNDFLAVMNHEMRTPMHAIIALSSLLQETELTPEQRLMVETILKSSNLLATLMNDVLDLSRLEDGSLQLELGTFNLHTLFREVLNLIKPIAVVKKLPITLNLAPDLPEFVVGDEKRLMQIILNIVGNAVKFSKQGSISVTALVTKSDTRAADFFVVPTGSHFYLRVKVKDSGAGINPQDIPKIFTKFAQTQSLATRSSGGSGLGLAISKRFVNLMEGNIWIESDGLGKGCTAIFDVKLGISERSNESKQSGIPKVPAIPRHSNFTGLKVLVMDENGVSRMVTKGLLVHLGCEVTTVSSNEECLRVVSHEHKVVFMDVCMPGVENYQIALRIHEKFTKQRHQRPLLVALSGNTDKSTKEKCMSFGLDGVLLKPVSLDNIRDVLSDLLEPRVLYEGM


Key:
[1] = biological target: receiver domain of ARABIDOPSIS … KINASE 5 (AHK5RD), labelled with Alexa Fluor-488 (Arabidopsis thaliana) (UniProt Q3S4A7); assay: MST
[2] = biological target: T1, ETR1 fragment comprising both HK and RD …; assay: MST

| Kd [1] [µM] | Kd [2] [µM] | Molecule |
| --- | --- | --- |
| 166 |  | histidine kinase domain of ETHYLENE RESPONSE 1 (ETR1HK) (domain or fragment) |
|  | 167 ± 50 | receiver domain of ARABIDOPSIS … KINASE 5 (AHK5RD), labelled with Alexa Fluor-488 (domain or fragment, Arabidopsis thaliana, Alexa Fluor-488 label (site not stated; printed as Alexa-Fluor 484 in the anisotropy methods)) ETSKPKILLVEDNKINIMVAKSMMKQLGHTMDIANNGVEAITAINSSSYDLVLMDVCMPVLDGLKATRLIRSYEETGNWNAAIEAGVDISTSENEQVCMRPTNRLPIIAMTANTLAESSEECYANGMDSFISKPVTLQKLRECLQQYLH |
